Series [1] relates to ZF-QQR-FN (consensus zinc fingers-FokI cleavage domain fusion) (synthetic construct). Put plainly: cleavage_in_vitro. As to conditions: DNA strand cleaved, ~100-fold slower than duplex; RNA strand not cleaved.
Series [2] has the same test system. Put plainly: EMSA. The note with it: apparent Kd. Background: A gel shift assay detects complexes by their altered migration in electrophoresis.
Series [3] deals with ZF-QQR (synthetic construct). In words: EMSA. As to conditions: CITED ref 34; exact hybrid used in cited work not given; cited from earlier work.
Series [4] addresses ZF-Sp1C (synthetic construct) (UniProt P08047). In words: EMSA. The note with it: CITED ref 34; DNA-RNA hybrid; cited from earlier work.

Drawing on patent US5792640, this text covers activity and Kd for two sequences.

Chain of ZF-Sp1C (synthetic construct) (P08047 626-708): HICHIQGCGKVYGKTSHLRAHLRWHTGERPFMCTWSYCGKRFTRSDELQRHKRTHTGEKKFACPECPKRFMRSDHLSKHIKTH

In series [1], “GAGCTCCTTTGGATCCAAGCTTCCCGGGGAAGAATTCGAGGAGGCTCTCGAGGTCGACTTCCTCTAGAGGTACC / GGUACCUCUAGAGGAAGUCGACCUCGAGAGCCUCCUCGAAUUCUUCCCCGGGAAGCUUGGAUCCAAACCAGCUC [QQR site DNA-RNA hybrid]” came in with an activity of 1%. Besides, the Kd in series [2] is 3 nM; in series [3], 2.8 nM.

With GGGGCGGGG [Sp1C site DNA-RNA hybrid], the Kd in series [4] is 40 nM.
